{"source": "paper PMC6037002", "about": "“Drug targeting to decrease cardiotoxicity – determination of the cytotoxic effect of GnRH-based conjugates containing doxorubicin, daunorubicin and methotrexate on human cardiomyocytes and endothelial cells” (Beilstein Journal of Organic Chemistry, 2018)", "key": {"[1]": {"conditions": "cited from earlier work", "experimental": "The GnRH derivatives were prepared by solid phase peptide synthesis (SPPS) according to Fmoc/t-Bu strategy (Supporting Information File 2). Three drug molecules, doxorubicin (Dox), daunorubicin (Dau) and methotrexate (Mtx), were employed in the preparation of drug conjugates. Dox has three potential conjugation sites; i) a primary OH group at C-14 on the aglycone part, which is suitable for ester bond formation, ii) an oxo group at C-13 is available for the generation of an oxime linkage and iii) the amino group on the daunosamine sugar moiety, which can be used for amide bond formation. The d ..."}, "[2]": {"test_system": "primary human cardiac myocytes (HCM)", "conditions": "for delta slope (DS), short-term / delta slope (DS), long-term: HCM, three parallels; for delta slope (DS), short-term: 0–2 h; for delta slope (DS), long-term: 0–72 h"}, "[3]": {"test_system": "HT-29 human colon adenocarcinoma cells", "conditions": "MTT assay; cited from earlier work", "excerpt": "(§1) Table 1 Comparative study of cytotoxic effects and cardiotoxicity elicited by GnRH-based antitumor compounds (1–15) and reference substances (AN-152, Dox, Dau, Mtx). IC50 values show antitumor cytotoxic characteristics of the conjugates in human breast cancer (MCF-7), human colorectal adenocarcinoma (HT-29) and human acute monocytic leukemia (MM6) derived cell lines as representative tumor cells."}, "[4]": {"test_system": "MCF-7 human breast adenocarcinoma cells", "conditions": "MTT assay; cited from earlier work", "excerpt": "as §1"}, "[5]": {"test_system": "human acute monocytic leukemia (MonoMac6) cells", "conditions": "cited from earlier work", "excerpt": "as §1"}, "[6]": {"test_system": "human umbilical vein endothelial cells (HUVEC)", "assay": "Impedimetric measurement (xCELLigence SP), delta slope, HUVEC", "conditions": "for delta slope (DS), short-term / delta slope (DS), long-term: HUVEC, three parallels; for delta slope (DS), short-term: 0–2 h; for delta slope (DS), long-term: 0–72 h; for Cardiotoxicity, HUVEC: grade +++/++/+/0, key not given, summary of impedimetric cytotoxicity; for cytotoxic effect on HUVEC, result in words: long-term (0–72 h), 10^−8–10^−6 mol/L, impedimetry, one-way ANOVA"}}, "note": "Where two headings read alike, the source gives them in different places."}
{"substance": "[^4Lys(Ac)]-GnRH-III(Dau=Aoa) [conjugate 5]", "values": [{"measurement": "enzymatic stability, result in words", "setting": "[1]", "value": "increased the enzymatic stability"}, {"measurement": "delta slope (DS), short-term", "setting": "[2]; Table S3b, 10^-6 mol/L", "value": -0.005}, {"measurement": "delta slope (DS), short-term", "setting": "[2]; Table S3b, 10^-7 mol/L", "value": -0.001}, {"measurement": "delta slope (DS), short-term", "setting": "[2]; Table S3b, 10^-8 mol/L", "value": -0.002}, {"measurement": "delta slope (DS), long-term", "setting": "[2]; Table S3b, 10^-6 mol/L", "value": "−0.003"}, {"measurement": "delta slope (DS), long-term", "setting": "[2]; Table S3b, 10^-7 mol/L", "value": -0.001}, {"measurement": "delta slope (DS), long-term", "setting": "[2]; Table S3b, 10^-8 mol/L", "value": 0.001}, {"measurement": "IC50", "setting": "[3]", "value": "7.4 ± 2.6", "unit": "µM"}, {"measurement": "IC50", "setting": "[4]", "value": "3.1 ± 1.7", "unit": "µM"}, {"measurement": "IC50", "setting": "[5]", "value": "0.925 ± 0.07", "unit": "µM"}, {"measurement": "delta slope (DS), short-term", "setting": "[6]; Table S3a, 10^-6 mol/L", "value": 0.002}, {"measurement": "delta slope (DS), short-term", "setting": "[6]; Table S3a, 10^-7 mol/L", "value": 0.004}, {"measurement": "delta slope (DS), short-term", "setting": "[6]; Table S3a, 10^-8 mol/L", "value": -0.001}, {"measurement": "delta slope (DS), long-term", "setting": "[6]; Table S3a, 10^-6 mol/L", "value": -0.001}, {"measurement": "delta slope (DS), long-term", "setting": "[6]; Table S3a, 10^-7 mol/L", "value": -0.001}, {"measurement": "delta slope (DS), long-term", "setting": "[6]; Table S3a, 10^-8 mol/L", "value": -0.001}, {"measurement": "Cardiotoxicity, HUVEC", "setting": "[6]", "value": 0}, {"measurement": "cytotoxic effect on HUVEC, result in words", "setting": "[6]", "value": "completely lost the cytotoxic effect"}]}
{"substance": "[^4N-MeSer]-GnRH-III(Dau=Aoa) [conjugate 6]", "values": [{"measurement": "enzymatic stability, result in words", "setting": "[1]", "value": "increased the enzymatic stability"}, {"measurement": "delta slope (DS), short-term", "setting": "[2]; Table S4b, 10^-6 mol/L", "value": 0.001}, {"measurement": "delta slope (DS), short-term", "setting": "[2]; Table S4b, 10^-7 mol/L", "value": -0.001}, {"measurement": "delta slope (DS), short-term", "setting": "[2]; Table S4b, 10^-8 mol/L", "value": -0.005}, {"measurement": "delta slope (DS), long-term", "setting": "[2]; Table S4b, 10^-6 mol/L", "value": 0.001}, {"measurement": "delta slope (DS), long-term", "setting": "[2]; Table S4b, 10^-7 mol/L", "value": -0.002}, {"measurement": "delta slope (DS), long-term", "setting": "[2]; Table S4b, 10^-8 mol/L", "value": -0.002}, {"measurement": "Cardiotoxicity, HCM", "setting": "[2]; grade +++/++/+/0, key not given, summary of impedimetric cytotoxicity", "value": 0}, {"measurement": "cytotoxic effect on HCM, result in words", "setting": "[2]; long-term (0–72 h), 10^−8–10^−6 mol/L (free drugs 10^−12–10^−6 mol/L), impedimetry, one-way ANOVA", "value": "completely lost their cytotoxic effect"}, {"measurement": "IC50", "setting": "[4]", "value": "10.6 ± 2.1", "unit": "µM"}, {"measurement": "IC50", "setting": "[5]", "value": "> 1", "unit": "µM"}, {"measurement": "delta slope (DS), short-term", "setting": "[6]; Table S4a, 10^-6 mol/L", "value": 0.006}, {"measurement": "delta slope (DS), short-term", "setting": "[6]; Table S4a, 10^-7 mol/L", "value": 0.002}, {"measurement": "delta slope (DS), short-term", "setting": "[6]; Table S4a, 10^-8 mol/L", "value": 0.011}, {"measurement": "delta slope (DS), long-term", "setting": "[6]; Table S4a, 10^-6 mol/L", "value": 0.001}, {"measurement": "delta slope (DS), long-term", "setting": "[6]; Table S4a, 10^-7 mol/L", "value": -0.001}, {"measurement": "delta slope (DS), long-term", "setting": "[6]; Table S4a, 10^-8 mol/L", "value": 0.001}, {"measurement": "Cardiotoxicity, HUVEC", "setting": "[6]", "value": 0}, {"measurement": "cytotoxic effect on HUVEC, result in words", "setting": "[6]", "value": "completely lost the cytotoxic effect"}]}
